# Measured values: publication PMC8993113
# Assay: two-colour ID-FRAP, CHO-K1 large ER inclusions
# Settings: glycan lost; control: YFP-Z coexpressed with HaloTag-CRT
substance,measurement,value
"Z-α1-antitrypsin: YFP-ZN46A,N83A,N247A (GlycMut)","other: calreticulin-driven immobilisation in ER inclusions, other: % cells with immobile YFP-Z",abolishes
